Test results from IntAct's records for PubMed 16236155.

B1: ADP-ribosylation factor 3 (Arabidopsis thaliana (Mouse-ear cress)), P40940 (parent)
chain: MGILFTRMFSSVFGNKEARILVLGLDNAGKTTILYRLQMGEVVSTIPTIGFNVETVQYNNIKFQVWDLGGQTSIRPYWRCYFPNTQAVIYVVDSSDTDRIGVAKEEFHAILEEDELKGAVVLIFANKQDLPGALDDAAVTEALELHKIKSRQWAIFKTCAVKGEGLFEGLDWLSNTLKSGSG
partner: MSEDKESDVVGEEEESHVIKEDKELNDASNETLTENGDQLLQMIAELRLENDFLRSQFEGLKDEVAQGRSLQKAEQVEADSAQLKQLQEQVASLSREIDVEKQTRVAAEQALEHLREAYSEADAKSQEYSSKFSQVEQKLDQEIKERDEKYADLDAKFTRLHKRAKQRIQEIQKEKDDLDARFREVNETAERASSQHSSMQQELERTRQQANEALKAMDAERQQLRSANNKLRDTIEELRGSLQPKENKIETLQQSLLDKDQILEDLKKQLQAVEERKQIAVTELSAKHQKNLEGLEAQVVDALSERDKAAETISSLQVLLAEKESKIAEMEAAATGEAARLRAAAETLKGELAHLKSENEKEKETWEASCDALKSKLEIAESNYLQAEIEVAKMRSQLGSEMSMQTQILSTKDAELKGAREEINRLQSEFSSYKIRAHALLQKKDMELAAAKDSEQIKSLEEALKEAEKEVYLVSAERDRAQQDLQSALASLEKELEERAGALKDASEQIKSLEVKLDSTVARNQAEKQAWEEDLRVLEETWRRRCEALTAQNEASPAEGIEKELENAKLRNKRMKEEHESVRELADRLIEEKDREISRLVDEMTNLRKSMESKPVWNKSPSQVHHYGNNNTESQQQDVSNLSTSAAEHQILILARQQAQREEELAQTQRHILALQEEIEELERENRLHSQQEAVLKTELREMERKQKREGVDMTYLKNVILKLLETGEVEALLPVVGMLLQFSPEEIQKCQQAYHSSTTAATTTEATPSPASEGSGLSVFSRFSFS
B2: Protein GRIP (Arabidopsis thaliana (Mouse-ear cress)), Q8S2T0 (parent)
chain: B1 partner
partner: B1 chain

Variants of: B1
Settings: with grip_arath GRIP, Q8S2T0

| Variant | effect of a mutation on the interaction |
| --- | --- |
| MGILFTRMFSSVFGNKEARILVLGLDNAGKNTILYRLQMGEVVSTIPTIGFNVETVQYNNIKFQVWDLGGQTSIRPYWRCYFPNTQAVIYVVDSSDTDRIGVAKEEFHAILEEDELKGAVVLIFANKQDLPGALDDAAVTEALELHKIKSRQWAIFKTCAVKGEGLFEGLDWLSNTLKSGSG [T31N] | disrupting interaction |

Variants of: B1
Settings: with grip_arath GRIP

| Variant | effect of a mutation on the interaction |
| --- | --- |
| MGILFTRMFSSVFGNKEARILVLGLDNAGKTTILYRLQMGEVVSTIPTIGFNVETVQYNNIKFQVWDLGGLTSIRPYWRCYFPNTQAVIYVVDSSDTDRIGVAKEEFHAILEEDELKGAVVLIFANKQDLPGALDDAAVTEALELHKIKSRQWAIFKTCAVKGEGLFEGLDWLSNTLKSGSG [Q71L] | causing an interaction |

Variants of: B2
Settings: with arf3_arath ARF3, P40940

| Variant | effect of a mutation on the interaction |
| --- | --- |
| Y717A | decreasing interaction |
